± gives the standard deviation of the averaged measurements.
B1: library; numbered along this chain (parent)
chain: MNIQIGELAKRTACPVVTIRFYEQEGLLPPPGRSRGNFRLYGEEHVERLQFIRHCRSLDMPLSDVRTLLSYRKRPDQDCGEVNMLLDEHIRQVESRIGALLELKHHLVELREACSGARPAQSCGILQGLSDCVCDTRGTTAHPSD

Tests used:
[1] = variants of: B1; experiment: sfGFP reporter fluorescence (15 h) (µM FITC); higher = higher leak; settings: library round: Round 1; ligand: none
Outline: (§1)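 With 1 µM lead chloride, 30 µM zinc acetate or no metal present, 1 μL Echo-assembled reactions were incubated 15 hr at 30 °C. They contained BL21 Star (DE3) PANOx-SP extract, 30 μg/mL GamS, the pPbrR-sfGFP reporter plasmid and PCR-made linear PbrR templates Echo-normalized to 5 nM. Endpoint sfGFP fluorescence was read on a Synergy Neo2 at 485/528 nm against FITC standards in 50 mM sodium borate pH 8.5. Results are expressed as µM FITC.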

[2] = variants of: B1; experiment: sfGFP reporter fluorescence (15 h) (µM FITC); higher = stronger transcriptional activation; settings: library round: Round 1
Outline: as §1

Variant	sfGFP reporter fluorescence [1]	sfGFP reporter fluorescence ([2]; ligand: 1 µM Pb)	sfGFP reporter fluorescence ([2]; ligand: 30 µM Zn)
N83T L107E	0.0668 ± 0.00076	0.0635 ± 0.0022	0.0662 ± 0.0024
N83T L107F	0.06096 ± 0.00056	0.059 ± 0.002	0.0604 ± 0.0011
N83T L107Y	0.0672 ± 0.0015	0.0739 ± 0.0066	0.0947 ± 0.0046
G128H P143W	0.0661 ± 0.0013	0.086 ± 0.0043	0.159 ± 0.012
G128H P143A	0.061 ± 0.0027	0.0728 ± 0.0023	0.121 ± 0.0099
D131H D135A	0.065 ± 0.00092	0.0777 ± 0.0089	0.402 ± 0.014
D131H D135P	0.0673 ± 0.0015	0.0988 ± 0.017	0.455 ± 0.04
D131H D135K	0.0669 ± 0.0015	0.0876 ± 0.0064	0.579 ± 0.071
D131C P143R	0.0674 ± 0.0018	0.0812 ± 0.0024	0.196 ± 0.0083
D131C P143A	0.0583 ± 0.0013	0.0696 ± 0.0017	0.141 ± 0.011
D131A D135A P143A	0.0687 ± 0.0035	0.0917 ± 0.0098	0.487 ± 0.043
L129M P143T	0.0636 ± 0.0011	0.0636 ± 0.0025	0.07306 ± 0.00056
D131A D135E	0.06499 ± 0.00042	0.0805 ± 0.0086	0.571 ± 0.06
D131A D135A	0.077 ± 0.0023	0.184 ± 0.0043	2.2 ± 0.17
D131A D135P	0.0689 ± 0.0013	0.119 ± 0.0078	0.654 ± 0.017
D131A D135S	0.0699 ± 0.0026	0.0955 ± 0.0012	0.604 ± 0.0087
M84Q R111L	0.0624 ± 0.0054	0.0651 ± 0.0026	0.122 ± 0.0058
G128A L129M	0.0617 ± 0.0017	0.0701 ± 0.0044	0.257 ± 0.034
N83T R96A	0.0645 ± 0.00037	0.0756 ± 0.0031	0.0938 ± 0.0026
L107C G128I D131C	0.657 ± 0.018	1.26 ± 0.22	1.77 ± 0.23
N83T L107C G128M	0.432 ± 0.012	1.31 ± 0.1	2.39 ± 0.53
D135A P143W	0.0683 ± 0.0014	0.0809 ± 0.0017	0.372 ± 0.0075

Variant	sfGFP reporter fluorescence [1]	sfGFP reporter fluorescence ([2]; ligand: 1 µM Pb)	sfGFP reporter fluorescence ([2]; ligand: 30 µM Zn)
D135A P143M	0.0655 ± 0.002	0.07977 ± 0.00056	0.405 ± 0.014
D135A P143T	0.063 ± 0.0013	0.07562 ± 0.00042	0.374 ± 0.028
D135A P143F	0.0621 ± 0.0018	0.0718 ± 0.0013	0.299 ± 0.028
D135A P143Y	0.0639 ± 0.0033	0.0797 ± 0.0033	0.361 ± 0.028
D135A P143A	0.0645 ± 0.0011	0.0761 ± 0.0051	0.423 ± 0.016
E109H D131C	0.0634 ± 0.0019	0.0764 ± 0.0062	0.159 ± 0.017
D131S C134V	0.072 ± 0.005	0.126 ± 0.0046	1.34 ± 0.045
H105A I125A	0.0647 ± 0.0012	0.0639 ± 0.0042	0.0656 ± 0.0013
E94Y P143C	0.0629 ± 0.0031	0.0621 ± 0.0044	0.0906 ± 0.0035
N83T P143R	0.0618 ± 0.0013	0.0709 ± 0.0047	0.145 ± 0.0075
N83T P143W	0.0657 ± 0.0018	0.07806 ± 0.00064	0.131 ± 0.0017
Q121A D135A	0.0661 ± 0.0031	0.0888 ± 0.0096	0.743 ± 0.11
D131C D135A	0.0605 ± 0.0013	0.0742 ± 0.0019	0.221 ± 0.02
K104R D135A	0.0652 ± 0.0026	0.0866 ± 0.004	0.368 ± 0.043
E109A R111L	0.06463 ± 0.00021	0.0688 ± 0.0022	0.1654 ± 0.00092
D131H P143Y	0.064 ± 0.0022	0.0797 ± 0.012	0.383 ± 0.0077
N83T V108L D131C P143T	0.06365 ± 0.00056	0.0753 ± 0.002	0.0975 ± 0.0026
R96A K104V	0.068 ± 0.0015	0.0754 ± 0.0017	0.118 ± 0.0059
L85Y K104V	0.0606 ± 0.0011	0.0629 ± 0.0018	0.223 ± 0.011
L107C E109Q G128I	0.54 ± 0.0092	1.09 ± 0.29	2.1 ± 0.28
N83T L110W	0.0601 ± 0.0015	0.0593 ± 0.0024	0.0597 ± 0.00097
R111I G128I	0.0666 ± 0.0015	0.127 ± 0.0043	0.695 ± 0.036

Variant	sfGFP reporter fluorescence [1]	sfGFP reporter fluorescence ([2]; ligand: 1 µM Pb)	sfGFP reporter fluorescence ([2]; ligand: 30 µM Zn)
R111A D131N	0.066 ± 0.0013	0.117 ± 0.018	0.829 ± 0.15
D87S	0.0624 ± 0.0015	0.0699 ± 0.0015	0.162 ± 0.017
D131A D135P P143W	0.0718 ± 0.0029	0.122 ± 0.0042	0.497 ± 0.081
K104V R111L	0.0656 ± 0.0016	0.0694 ± 0.0047	0.0976 ± 0.0039
K104V R111A	0.0644 ± 0.0027	0.096 ± 0.0033	0.356 ± 0.013
K104V R111D	0.0612 ± 0.0019	0.0619 ± 0.0015	0.0723 ± 0.0033
N83Y R111A	0.064 ± 0.00092	0.0721 ± 0.0067	0.0742 ± 0.00085
N83Y R111D	0.06194 ± 0.00037	0.0568 ± 0.0025	0.0571 ± 0.0031
N83Y R111L	0.06133 ± 0.00056	0.0694 ± 0.0053	0.0698 ± 0.0019
D131A P143L	0.07208 ± 0.00056	0.0969 ± 0.0024	0.559 ± 0.0079
I97S G128I	0.0694 ± 0.0013	0.136 ± 0.023	0.89 ± 0.023
H105E	0.0625 ± 0.0011	0.06829 ± 0.00056	0.31 ± 0.016
L107I P143R	0.06365 ± 0.00021	0.0775 ± 0.0077	0.473 ± 0.02
L126I D135A	0.0632 ± 0.0024	0.064 ± 0.0037	0.152 ± 0.0059
E94F K104V G128H	0.0634 ± 0.002	0.0647 ± 0.0031	0.0833 ± 0.0084
S115G D131C	0.0572 ± 0.0013	0.0619 ± 0.0016	0.0992 ± 0.0037
N83W P143A	0.0616 ± 0.0013	0.0688 ± 0.0011	0.0621 ± 0.0015
L107E G128I	0.0629 ± 0.0025	0.0633 ± 0.0023	0.0621 ± 0.0022
E109H D135A	0.0629 ± 0.00092	0.0832 ± 0.011	0.254 ± 0.02
L107C C134I	0.731 ± 0.13	1.15 ± 0.15	2.12 ± 0.21
K104R C134I	0.0715 ± 0.00073	0.152 ± 0.007	1.14 ± 0.072
Q127S	0.0614 ± 0.00076	0.0649 ± 0.0047	0.118 ± 0.0086

Variant	sfGFP reporter fluorescence [1]	sfGFP reporter fluorescence ([2]; ligand: 1 µM Pb)	sfGFP reporter fluorescence ([2]; ligand: 30 µM Zn)
N83T V108N	0.06328 ± 0.00021	0.0698 ± 0.0061	0.132 ± 0.0091
L107C D131A	0.73 ± 0.082	1.4 ± 0.048	2.23 ± 0.17
E109I R111L	0.0627 ± 0.0016	0.0717 ± 0.003	0.217 ± 0.0064
L129I D131C	0.0646 ± 0.0017	0.0641 ± 0.0044	0.07 ± 0.0017
R111L G128I	0.0666 ± 0.0024	0.0985 ± 0.0091	0.528 ± 0.024
R111L G128P	0.0584 ± 0.0015	0.0568 ± 0.0028	0.0542 ± 0.0045
L107C G128I D135S	2.64 ± 0.069	3.9 ± 0.36	4.376 ± 0.041
V108R P143M	0.0636 ± 0.002	0.0724 ± 0.0057	0.376 ± 0.019
D135R P143A	0.0577 ± 0.0043	0.0707 ± 0.0053	0.317 ± 0.04
M84A G124A	0.0619	0.064 ± 0.0056	0.143 ± 0.0022
E112I D135A	0.063 ± 0.0023	0.06438 ± 0.00042	0.176 ± 0.0035
N83Y K104V	0.0651 ± 0.0031	0.119 ± 0.024	0.0894 ± 0.0065
D135A T136S	0.065 ± 0.00085	0.0751 ± 0.0085	0.424 ± 0.047
R96G	0.0668 ± 0.0022	0.076 ± 0.004	0.195 ± 0.012
R96S	0.0636 ± 0.0021	0.0924 ± 0.0049	0.328 ± 0.015
R96Q	0.0632 ± 0.0037	0.0982 ± 0.0089	0.455 ± 0.0056
L100I	0.0611 ± 0.0014	0.0649 ± 0.0013	0.216 ± 0.019
L110I D135A	0.0608 ± 0.00097	0.0588 ± 0.0053	1.94 ± 0.1
L85I P143M	0.058 ± 0.0019	0.0691 ± 0.0018	0.401 ± 0.029
E112I D131C	0.06499 ± 0.00042	0.0652 ± 0.002	0.083 ± 0.0019
D131T V133P	0.0641 ± 0.0013	0.0767 ± 0.0042	0.395 ± 0.036
I125L D131A D135A	0.065 ± 0.0029	0.0661 ± 0.0051	0.0699 ± 0.0045
